Data taken from patent US20180049457A1, “ENZYMATIC SYNTHESIS OF SOLUBLE GLUCAN FIBER” (E I DU PONT DE NEMOURS AND COMPANY, priority 2014, published 2018).

B1: GTF4336NT: N terminal-only truncated GTF4336 from Streptococcus salivarius SK126, SEQ ID NO: 104, strain SG1291 (protein)
chain: INGKQYYVNSDGSVRKNFVFEQDGKSYYFDAETGALATKSQDEFSTEPIKATVDFSSGNQLYKNDDKSLDQLDTFITADAWYRPKSILKDGKTWTASTEADKRPLLMVWWPDKSTQVNYLNYMQNQGLGAGSFSTNSSQESLDQAAKAVQTKIEERIAREGNTNWLRTSIDQFIKTQPGWNSSTENSSYDHLQGGQLLFNNSKGDTGNRTSHANSDYRLLNRTPTNQTGTRKYFKDNSIGGLEFLLANDIDNSNPAVQAEQLNWLHFMMNIGSIMANDPTANFDGLRVDALDNVDADLLQIASDYFKAAYGVDKSEANAIKHLSYLEAWSANDPYYNKDTKGAQLPIDNALRNALTNLLMRDKNTRMQLGDMTAFINSSLNPRGANDKNGERMANYIFTRAHDTEAQTIIQRIIRDRINPNLFGYNFTRDEIKKAFEIYNEDIDKAHKTYASYNLPSVYALMLTNKDSVTRVYYGDLYREDGHYMAKKTPYFDAIDTLLRARIKYVAGGQDMEVKKVGNDGLLTSVRYGKGANNRTDLGTSETRTQGMGVIMTNNYDFRLGSNETVTMNMGRAHRNQLYRPLLLTTKDGIATYFNDSDVPKNLLKRTDWNGNLTFNANDVFGVENVQVSGYLGVWVPVGAKANQDARTQPSNRANSDGQVYKSSAALDSQVMYEAFSNFQAFADDQPELYMNRVLAKNTDLLKAWGVTSVGLPPQYVSSKDGTFLDSTIDNGYAFDDRYDMALSQNNKYGSLEDLLNVLRALHKDGIQAIADWVPDQIYNLPGKEVVNATRVNGYGYHQQGYQIVDQAYVANTRTDGTDYQGKYGGAFLDELKAKYPSIFNRVQISNGKQLPTNEKITKWSAKYFNGTNILGRGINYVLRDDKTNQYFNTSANSQLLPTPLRDTGAITSTQVFQRRGQDVYFLRDNQAVKNEFVQDGNGNWYYFGADGKMTKGAQTINKKDYYFFDNGIQLRNALRRANNGYTYYYGLDGAMVKNAFVDFDDKRKQVRAFTTQGTMVVGNLHWSGHHFYFDRETGIQAKDRIVRTDDGKLHYYVAGTGDMGRNVFATDSSTGKRYYFDADGNTVTGSRVIDGKTYYFNQDGSVGTAYSNRADSIIFENGKARYITPAGEIGRSIFVYNPATKAWNYFDKEGNRVTGRQYIDGHLYYFKEDGSQAKGEIIEENGIKYYYEPESGILASGRYLQVGDDQWMYFKQDGSLAIGQVRADHGYLKYFDKNGIQVKGKTIVEDGKTYYYDAHSGALVTSSFAEIAPNQWSYFNTDGQALKGKWTINGKEYYFDQNGIQYKGKAVKVGSRYKYYDENDGQPVTNRFAQIEPNVWAYFGADGYAVTGEQVINGQHLYFDQSGRQVKGAYVTVNGQRRYYDANTGEYVPGR
modifications: Streptococcus salivarius SK126
B2: GTF4491NT: N terminal-only truncated GTF4491 from Streptococcus salivarius JIM8777, SEQ ID NO: 106, strain SG1292 (protein)
chain: INGKQYYVNSDGSVRKNFVFEQDGKSYYFDAETGALATKSQDEFSTEPIKATVDFSSGNQLYKNDDKSLDQLDTFITADAWYRPKSILKDGKTWTASTEADKRPLLMVWWPDKSTQVNYLNYMQNQGLGAGSFSTNSSQESLDQAAKAVQTKIEERIAREGNTNWLRTSIDQFIKTQPGWNSSTENSSYDHLQGGQLLFNNSKGDTGNRTSHANSDYRLLNRTPTNQTGTRKYFKDNSIGGLEFLLANDIDNSNPAVQAEQLNWLHFMMNIGSIMANDPTANFDGLRVDALDNVDADLLQIASDYFKAAYGVDKSEANAIKHLSYLEAWSANDPYYNKDTKGAQLPIDNALRNALTNLLMRDKNTRMQLGDMTAFINSSLNPRGANDKNGERMANYIFTRAHDTEAQTIIQRIIRDRINPNLFGYNFTRDEIKKAFEIYNEDIDKAHKTYASYNLPSVYALMLTNKDSVTRVYYGDLYREDGHYMAKKTPYFDAIDTLLRARIKYVAGGQDMEVKKVGNDGLLTSVRYGKGANNRTDLGTSETRTQGMGVIMTNNYDFRLGSNETVTMNMGRAHRNQLYRPLLLTTKDGIATYLNDSDVPKNLLKRTDWNGNLTFNANDVFGVENVQVSGYLGVWVPYGAKANQDARTQPSNRANSDGQVYKSSAALDSQVMYEAFSNFQAFADDQPELYMNRVLAKNTDLLKAWGITSVGLPPQYVSSKDGTFLDSIIDNGYAFDDRYDMALSQNNKYGSLEDLLNVLRALHKDGIQAIADWVPDQIYNLPGKEVVNATRVNGYGYHQQGYQIVDQAYVANTRTDGTDYQGKYGGAFLDELKAKYPSIFNRVQISNGKQLPTNEKITKWSAKYFNGTNILGRGINFVLRDDKTNQYFNTSANSQLLPTPLRDTGAITSTQVFQRRGQDVYFLRDNQTVKNEFVQDGNGNWYYFGGDGKMTKGAQNINSKDYYFFDNGVQLRNALRRASNGYTYYYGLDGAMVKNAFVDFDDKHKQVRAFTTQGTMVVGNLHWSGHHFYFDRETGIQAKDRVVRTDDGKLHYYVAETGDMGRNVFATDSSTGKRYYFDADGNTVTGSRVIDGKTYYFNQDGSVGTAYSNRADSIIFENGKARYITPAGEIGRSIFVYNPATKAWNYFDKEGNRVTGRQYIDGHLYYFKEDGSQAKGEIIEENGIKYYYEPESGILASGRYLQVGDDQWMYFKQDGSLAIGQVRADHGYLKYFDKNGIQVKGKTVVEDGKTYYYDAHSGALVTSSFAEIAPNQWSYFNTDGQALKGKWTINGKEYYFDENGIQYKGKAIKVGSRYKYYDENDGQPVTNRFAQIEPNVWAYFGADCYAVTGEQVINGQHLYFDENGRQVKGAYVTVNGQRRYYDANTGEYVPGR
modifications: Streptococcus salivarius JIM8777
B3: GTF4491T5: T5 C-terminal truncation of GTF4491, SEQ ID NO: 122, strain SG1321 (protein)
chain: INGKQYYVNSDGSVRKNFVFEQDGKSYYFDAETGALATKSQDEFSTEPIKATVDFSSGNQLYKNDDKSLDQLDTFITADAWYRPKSILKDGKTWTASTEADKRPLLMVWWPDKSTQVNYLNYMQNQGLGAGSFSTNSSQESLDQAAKAVQTKIEERIAREGNTNWLRTSIDQFIKTQPGWNSSTENSSYDHLQGGQLLFNNSKGDTGNRTSHANSDYRLLNRTPTNQTGTRKYFKDNSIGGLEFLLANDIDNSNPAVQAEQLNWLHFMMNIGSIMANDPTANFDGLRVDALDNVDADLLQIASDYFKAAYGVDKSEANAIKHLSYLEAWSANDPYYNKDTKGAQLPIDNALRNALTNLLMRDKNTRMQLGDMTAFINSSLNPRGANDKNGERMANYIFTRAHDTEAQTIIQRIIRDRINPNLFGYNFTRDEIKKAFEIYNEDIDKAHKTYASYNLPSVYALMLTNKDSVTRVYYGDLYREDGHYMAKKTPYFDAIDTLLRARIKYVAGGQDMEVKKVGNDGLLTSVRYGKGANNRTDLGTSETRTQGMGVIMTNNYDFRLGSNETVTMNMGRAHRNQLYRPLLLTTKDGIATYLNDSDVPKNLLKRTDWNGNLTFNANDVFGVENVQVSGYLGVWVPYGAKANQDARTQPSNRANSDGQVYKSSAALDSQVMYEAFSNFQAFADDQPELYMNRVLAKNTDLLKAWGITSVGLPPQYVSSKDGTFLDSIIDNGYAFDDRYDMALSQNNKYGSLEDLLNVLRALHKDGIQAIADWVPDQIYNLPGKEVVNATRVNGYGYHQQGYQIVDQAYVANTRTDGTDYQGKYGGAFLDELKAKYPSIFNRVQISNGKQLPTNEKITKWSAKYFNGTNILGRGINFVLRDDKTNQYFNTSANSQLLPTPLRDTGAITSTQVFQRRGQDVYFLRDNQTVKNEFVQDGNGNWYYFGGDGKMTKGAQNINSKDYYFFDNGVQLRNALRRASNGYTYYYGLDGAMVKNAFVDFDDKHKQ
modifications: T5 C-terminal truncation of GTF4491
B4: GTF4491T4: T4 C-terminal truncation of GTF4491, SEQ ID NO: 132, strain SG1320 (protein)
chain: INGKQYYVNSDGSVRKNFVFEQDGKSYYFDAETGALATKSQDEFSTEPIKATVDFSSGNQLYKNDDKSLDQLDTFITADAWYRPKSILKDGKTWTASTEADKRPLLMVWWPDKSTQVNYLNYMQNQGLGAGSFSTNSSQESLDQAAKAVQTKIEERIAREGNTNWLRTSIDQFIKTQPGWNSSTENSSYDHLQGGQLLFNNSKGDTGNRTSHANSDYRLLNRTPTNQTGTRKYFKDNSIGGLEFLLANDIDNSNPAVQAEQLNWLHFMMNIGSIMANDPTANFDGLRVDALDNVDADLLQIASDYFKAAYGVDKSEANAIKHLSYLEAWSANDPYYNKDTKGAQLPIDNALRNALTNLLMRDKNTRMQLGDMTAFINSSLNPRGANDKNGERMANYIFTRAHDTEAQTIIQRIIRDRINPNLFGYNFTRDEIKKAFEIYNEDIDKAHKTYASYNLPSVYALMLTNKDSVTRVYYGDLYREDGHYMAKKTPYFDAIDTLLRARIKYVAGGQDMEVKKVGNDGLLTSVRYGKGANNRTDLGTSETRTQGMGVIMTNNYDFRLGSNETVTMNMGRAHRNQLYRPLLLTTKDGIATYLNDSDVPKNLLKRTDWNGNLTFNANDVFGVENVQVSGYLGVWVPYGAKANQDARTQPSNRANSDGQVYKSSAALDSQVMYEAFSNFQAFADDQPELYMNRVLAKNTDLLKAWGITSVGLPPQYVSSKDGTFLDSIIDNGYAFDDRYDMALSQNNKYGSLEDLLNVLRALHKDGIQAIADWVPDQIYNLPGKEVVNATRVNGYGYHQQGYQIVDQAYVANTRTDGTDYQGKYGGAFLDELKAKYPSIFNRVQISNGKQLPTNEKITKWSAKYFNGTNILGRGINFVLRDDKTNQYFNTSANSQLLPTPLRDTGAITSTQVFQRRGQDVYFLRDNQTVKNEFVQDGNGNWYYFGGDGKMTKGAQNINSKDYYFFDNGVQLRNALRRASNGYTYYYGLDGAMVKNAFVDFDDKHK
modifications: T4 C-terminal truncation of GTF4491

assay: GTF activity of strains (PAHBAH assay); assay type: biochemical; conditions: Experiment Number 1; enzyme expressed in B. subtilis host
Protocol: GTF activity of the strains was analyzed by PAHBAH assay in three separate experiments. Due to minor variations between the expeirments, Table 2 lists the activity of the truncated enzymes in the B. subtilis host along with the experiment in which the activity was measured. Most of the T1, T2, and T6 truncations decreased the activity of the enzymes, whereas the T4 and T5 C-terminal truncations retained similar activity relative to the respective N terminal-only truncations (NT). […] To identify specific amino acid residues within the catalytic domain that may be involved in producing the soluble α-glucan fiber, we analyzed the crystal structures (PDB Identifiers: 3AIB, 3AIC, and 3HZ3) of the catalytic domains of three glucosyltransferases to identify residues within 8 Angstroms of the bound ligand. 57 residues met that criterion. A motif was generated based on the corresponding 57 amino acids in GTF0459 and each of the identified homologs. The motif was then used to generate a consensus sequence to capture the variability in the catalytic domains of GTF0459 and the identified homologs. The consensus sequence is provided as SEQ ID NO: 153.

Row | Molecule | GTF activity of strains: Acitivity [U/mL]
1 | B1 | 34.5
2 | B2 | 42.3

same assay, conditions: Experiment Number 2; enzyme expressed in B. subtilis host

Row | Molecule | GTF activity of strains: Acitivity [U/mL]
3 | B3 | 50.6
4 | B1 | 48.6
5 | B2 | 53.1
6 | B4 | 45.3
